In patent US6770739B1, “Enhancers of CFTR chloride channel function” (Case Western Reserve University, priority 1999, dated 2004):

Experiments:
ΔNEG2-CFTR channel = biological target: T1, ΔNEG2-CFTR channel (Homo sapiens, UniProt P13569, DEL817-838); test: Single channel recording of ΔNEG2-CFTR reconstituted in planar lipid bilayer; type: biochemical; settings: 0.44 μM NEG2 peptide, −80 mV, 2 mM ATP, no PKA
T1 construct: made in house; host or cells: 293-EBNA HEK cells (Invitrogen), transient transfection with pCEP4(ΔNEG2); microsomal membrane vesicles
Text: Single channel measurements indicate that the ΔNEG1-CFTR channel is similar to wt-CFTR in its PKA dependence. No chloride channels are observed in the absence of PKA (FIG. 2A) and the open probability in the presence of PKA and ATP is similar to wt-CFTR. In contrast, the ΔNEG2-CFTR channel opens without PKA (FIG. 2A). The constitutive activity of the ΔNEG2-CFTR channel is unlikely to be due to the endogenous phosphorylation of the ΔNEG2-CFTR protein, since protein phosphatase 2A, which decreases activity of the wt-CFTR opened by PKA and ATP (Ma et al., 1997), has no effect on the ΔNEG2-CFTR channel (n=4).
To test whether the NEG2 region is responsible for both stimulatory and inhibitory interactions between the R domain and other domains, synthetic NEG2, a 22 amino acid peptide, was added to the cis-intracellular side of single CFTR channels captured in the planar lipid bilayer (FIG. 3). […] After peptide addition, there are periods of intense stimulation that last 4 to 8 minutes. These stimulatory periods are followed by either a return to the basal level of activity before peptide addition, or by an almost complete inhibition of the channel, where only a flickery 3 pS conductance is observed. […]

wt-CFTR channel = biological target: T2, wt-CFTR channel (Homo sapiens, UniProt P13569); test: Single channel recording of wt-CFTR reconstituted in planar lipid bilayer; type: biochemical
T2 construct: made in house; host or cells: 293-EBNA HEK cells (Invitrogen), transient transfection with pCEP4(wt); microsomal membrane vesicles
Procedure: To test whether the NEG2 region is responsible for both stimulatory and inhibitory interactions between the R domain and other domains, synthetic NEG2, a 22 amino acid peptide, was added to the cis-intracellular side of single CFTR channels captured in the planar lipid bilayer (FIG. 3). […] After peptide addition, there are periods of intense stimulation that last 4 to 8 minutes. These stimulatory periods are followed by either a return to the basal level of activity before peptide addition, or by an almost complete inhibition of the channel, where only a flickery 3 pS conductance is observed.
In order to understand the mechanism responsible for the increase in open probability, the gating kinetics of wt-CFTR without peptide and during stimulation by synthetic NEG2 were analyzed. […] Thus, the increase in the open probability is not due to a change in the closing rate of the channel. However, the closed time distribution for the stimulated channel is clearly shifted to the left compared to the control channel (FIG. 4B). There are three components to the closed state, a fast (τc1), an intermediate (τc2) and a long (τc3) closed component. The fast closed component is probably due to closings within a burst (Carson et al., 1995). Therefore, to identify better the closed times between bursts, a delimiter of τc=40 ms was set at the nadir between the fast and intermediate closed times (illustrated by the arrow in FIG. 4B) to generate the closed-burst duration histograms. […] Thus, the interaction of NEG2 with CFTR increased the intermediate-opening rate of the channel. This increase in opening rate is similar to that observed when the phosphorylated R domain protein (amino acids 645-834) was added to CFTR-ΔR/S660A in excised, inside-out patches (Winter and Welsh, 1997). Additionally, modification of C832, which resides within NEG2, by N-ethylrnaleimide (NEM) results in irreversible stimulation of PKA-phosphorylated CFTR chloride channel activity (Cotten and Welsh, 1997), further emphasizing the importance of NEG2 in CFTR regulation.
A human embryonic kidney cell line (293-EBNA HEK; Invitrogen) was used for transfection and expression of the CFTR proteins (Ma et al., 1997, Ma et al., 1996, Xie et al., 1995). The HEK-293 cell line contains a pCMV-EBNA vector, which constitutively expresses the Epstein-Barr virus nuclear antigen-1 (EBNA-1) gene product and increases the transfection efficiency of Epstein-Barr virus-based vectors. The cells were maintained in Dulbecco's Modified Eagle Medium with 10% FBS and 1% L-glutamine. Geneticin (G418, 250 (g/ml) was added to the cell culture medium to maintain selection of the cells containing the pCMV-EBNA vector. Lipofectamine reagent (Life Technologies, Inc) in Optimem media (serum-free) was used to transfect the HEK-293 cells with pCEP4(wt), pCEP4(ΔNEG1), or pCEP4(ΔNEG2). After 5 hours, serum was added to the media (10% final serum concentration). Twenty-four hours after transfection, the transfection media was replaced with fresh media. The cells were harvested two days after transfection and microsomal membrane vesicles were prepared for single channel measurements in the lipid bilayer reconstitution system.
HEK-293 cells transfected with pCEP4(CFTR) were harvested and homogenized using a combination of hypotonic lysis and Dounce homogenization in the presence of protease inhibitors (Ma et al., 1997, Ma et al., 1996, Xie et al., 1995). Microsomes were collected by centrifugation of postnuclear supernatant (4500×g, 15 min) at 100,000×g for 20 min and resuspended in a buffer containing 250 mM sucrose, 10 mM HEPES, pH 7.2. The membrane vesicles were stored at −75° C. until use.
The 22 amino acid peptide corresponding to NEG2 was custom made by Quality Controlled Biochemicals, Inc. The peptide was resuspended in water to a concentration of 1 mg/ml and pH was adjusted to a physiological range (7.2-7.4) using KOH and HCl. […]

[1] = peptide-stimulated, 4.4 μM NEG2 peptide, −80 mV

T2 sequence (P13569 whole entry): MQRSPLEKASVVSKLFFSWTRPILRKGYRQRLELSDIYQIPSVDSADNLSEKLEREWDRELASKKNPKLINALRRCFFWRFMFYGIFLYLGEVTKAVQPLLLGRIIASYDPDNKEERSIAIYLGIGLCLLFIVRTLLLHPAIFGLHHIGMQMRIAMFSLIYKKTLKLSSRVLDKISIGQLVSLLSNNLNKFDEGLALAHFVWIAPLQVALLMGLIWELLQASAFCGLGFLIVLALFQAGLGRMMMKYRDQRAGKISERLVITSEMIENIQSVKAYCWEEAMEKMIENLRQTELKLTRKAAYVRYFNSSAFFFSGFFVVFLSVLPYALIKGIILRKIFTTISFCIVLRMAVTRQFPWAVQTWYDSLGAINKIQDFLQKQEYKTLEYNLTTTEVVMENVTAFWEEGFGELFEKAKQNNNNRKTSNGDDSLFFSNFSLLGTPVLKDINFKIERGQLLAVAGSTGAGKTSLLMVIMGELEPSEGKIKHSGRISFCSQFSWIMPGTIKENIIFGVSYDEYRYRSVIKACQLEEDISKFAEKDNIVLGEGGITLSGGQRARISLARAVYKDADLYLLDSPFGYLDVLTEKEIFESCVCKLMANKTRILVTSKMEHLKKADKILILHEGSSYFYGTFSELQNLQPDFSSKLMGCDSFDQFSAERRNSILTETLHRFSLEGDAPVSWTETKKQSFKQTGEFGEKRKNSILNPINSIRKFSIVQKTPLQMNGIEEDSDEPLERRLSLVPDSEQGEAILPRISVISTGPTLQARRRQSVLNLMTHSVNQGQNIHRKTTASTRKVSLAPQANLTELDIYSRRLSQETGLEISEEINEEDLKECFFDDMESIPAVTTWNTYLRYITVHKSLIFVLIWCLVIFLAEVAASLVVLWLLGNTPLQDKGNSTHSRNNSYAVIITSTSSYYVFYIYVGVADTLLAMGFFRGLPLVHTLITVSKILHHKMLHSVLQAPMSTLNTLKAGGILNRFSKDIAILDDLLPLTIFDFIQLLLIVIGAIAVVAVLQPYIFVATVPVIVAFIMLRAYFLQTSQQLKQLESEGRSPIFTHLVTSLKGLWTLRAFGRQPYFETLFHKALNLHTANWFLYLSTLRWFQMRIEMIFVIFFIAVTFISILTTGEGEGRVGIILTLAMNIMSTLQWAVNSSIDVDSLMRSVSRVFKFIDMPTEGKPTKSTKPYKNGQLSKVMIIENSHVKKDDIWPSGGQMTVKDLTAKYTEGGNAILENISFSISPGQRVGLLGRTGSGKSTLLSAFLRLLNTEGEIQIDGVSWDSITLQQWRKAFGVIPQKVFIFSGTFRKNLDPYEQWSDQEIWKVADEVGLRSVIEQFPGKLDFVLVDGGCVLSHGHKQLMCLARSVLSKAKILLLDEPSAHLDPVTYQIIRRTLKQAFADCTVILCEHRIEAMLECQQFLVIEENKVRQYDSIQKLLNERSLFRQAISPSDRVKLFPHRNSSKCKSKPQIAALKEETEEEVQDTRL
T1 sequence (P13569 with tags, fused parts or gaps DEL817-838): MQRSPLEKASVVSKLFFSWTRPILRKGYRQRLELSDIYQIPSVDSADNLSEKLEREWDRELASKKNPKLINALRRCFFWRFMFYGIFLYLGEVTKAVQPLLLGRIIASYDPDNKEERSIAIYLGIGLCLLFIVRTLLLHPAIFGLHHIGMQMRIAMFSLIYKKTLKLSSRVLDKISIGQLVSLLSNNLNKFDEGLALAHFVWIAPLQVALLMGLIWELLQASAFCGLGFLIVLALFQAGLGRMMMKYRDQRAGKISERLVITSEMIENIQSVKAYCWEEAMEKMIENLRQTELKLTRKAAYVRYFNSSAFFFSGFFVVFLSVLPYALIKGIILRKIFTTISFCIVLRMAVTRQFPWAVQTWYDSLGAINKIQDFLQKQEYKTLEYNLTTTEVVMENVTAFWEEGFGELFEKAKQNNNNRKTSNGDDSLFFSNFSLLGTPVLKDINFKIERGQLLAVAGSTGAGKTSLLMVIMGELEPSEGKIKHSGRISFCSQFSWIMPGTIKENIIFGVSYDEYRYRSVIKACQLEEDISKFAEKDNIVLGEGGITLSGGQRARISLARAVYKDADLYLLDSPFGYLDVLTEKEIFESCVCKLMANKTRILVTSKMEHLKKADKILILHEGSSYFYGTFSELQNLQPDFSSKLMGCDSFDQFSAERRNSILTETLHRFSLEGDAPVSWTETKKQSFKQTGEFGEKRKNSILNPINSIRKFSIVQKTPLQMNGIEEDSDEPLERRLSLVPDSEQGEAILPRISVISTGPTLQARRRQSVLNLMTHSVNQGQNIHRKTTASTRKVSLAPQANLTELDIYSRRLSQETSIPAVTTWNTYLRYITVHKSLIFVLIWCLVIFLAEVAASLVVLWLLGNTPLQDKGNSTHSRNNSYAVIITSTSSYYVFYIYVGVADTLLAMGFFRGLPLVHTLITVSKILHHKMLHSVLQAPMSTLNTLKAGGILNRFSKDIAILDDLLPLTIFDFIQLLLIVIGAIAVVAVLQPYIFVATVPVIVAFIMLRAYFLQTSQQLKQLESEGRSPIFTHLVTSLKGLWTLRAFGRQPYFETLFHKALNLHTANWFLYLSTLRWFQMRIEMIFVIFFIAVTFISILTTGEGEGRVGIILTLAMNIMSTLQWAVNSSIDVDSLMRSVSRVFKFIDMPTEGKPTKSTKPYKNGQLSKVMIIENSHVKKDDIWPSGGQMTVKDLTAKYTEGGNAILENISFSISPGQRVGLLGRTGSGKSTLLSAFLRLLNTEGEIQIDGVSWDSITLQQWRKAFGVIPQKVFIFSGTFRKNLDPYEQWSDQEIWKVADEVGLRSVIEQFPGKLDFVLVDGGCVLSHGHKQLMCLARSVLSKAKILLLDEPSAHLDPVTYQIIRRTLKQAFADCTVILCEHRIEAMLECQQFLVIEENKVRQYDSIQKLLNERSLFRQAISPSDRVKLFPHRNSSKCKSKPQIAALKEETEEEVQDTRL

Substance: NEG2 peptide: Synthetic 22 amino acid peptide corresponding to NEG2, amino acids 817-838 of the CFTR R domain (GLEISEEINEEDLKECFFDDME; listed as Homo sapiens)
- effect on ΔNEG2-CFTR channel activity (ΔNEG2-CFTR channel): stimulation is observed
- change of open probability during stimulation (wt-CFTR channel; peptide added to cis-intracellular side, 2 mM ATP, 50 units PKA/ml): more than doubles
- P2, probability of the intermediate closed component (wt-CFTR channel; [1]): 0.957
- P3, probability of the long closed component (wt-CFTR channel; [1]): 0.043
- intermediate closed time τc2 (wt-CFTR channel; peptide-stimulated, 4.4 μM NEG2 peptide, −80 mV, closed-burst histogram, delimiter 40 ms): 105 ms
- concentration at which stimulatory response was observed (wt-CFTR channel; stimulation in 6 of 7 experiments, cis-intracellular addition): ≥ 0.44 µM
- concentration at which profound inhibition was observed (wt-CFTR channel; three channels, cis-intracellular addition): ≥ 4.4 µM
